Results taken from publication PMC7494816, “Stoichiometry of Rtt109 complexes with Vps75 and histones H3-H4” (Life Science Alliance, 2020).

Experiments:
[1] = target: T1, Xenopus laevis histones H3-H4 (wild type), refolded (Xenopus laevis, UniProt P84233 1-136; P62799 1-103); test: AUC; sedimentation velocity; 0.5 or 1 equivalent of H3-H4 or H3DM-H4 titrated against Vps75–Rtt109 reconstituted at 2:2 or 2:1 (relative to 7.5 μM Vps75), with 2:2 mixes of Vps75 and histones for reference; 20 mM Tris pH 7.5, 150 mM NaCl, 0.5 mM TCEP, 20°C; conditions: both partners purified
T1 construct: histone H3, Xenopus laevis, wild type; histone H4, Xenopus laevis; One H3-H4 dimer is the unit used for concentrations and equivalents; it can form the (H3-H4)2 tetramer; also called (H3-H4)2 tetramer; H3-H4 dimer; source: bought unfolded: the Histone Source at Colorado State University

[2] = target: the molecule itself; test: AUC; sedimentation velocity, van Holde–Weischet analysis; 7.5 μM Vps75 with 0, 0.5 and 1.0 equivalent of Rtt109; 20 mM Tris pH 7.5, 150 mM NaCl, 0.5 mM TCEP, 20°C
[3] = target: the molecule itself; test: AUC; sedimentation velocity, van Holde–Weischet analysis; 7.5 μM Vps75 with 0, 0.5 and 1.0 equivalent of Rtt109; 20 mM Tris pH 7.5, 300 mM NaCl, 0.5 mM TCEP, 20°C
[4] = target: the molecule itself; test: SEC-MALS; anion exchange peaks P1, P2, P3 of co-expressed, co-purified Vps75–Rtt109, 20 μM; Superdex 200 Increase 10/300 GL; 20 mM Tris–HCl pH 7.5, 300 mM NaCl, 0.5 mM TCEP

B1: Vps75 (Saccharomyces cerevisiae), individually expressed and purified (natural protein, UniProt P53853 1-264, looked up)
chain: MMSDQENENEHAKAFLGLAKCEEEVDAIEREVELYRLNKMKPVYEKRDAYIDEIAEFWKIVLSQHVSFANYIRASDFKYIDTIDKIKVEWLALESEMYDTRDFSITFHFHGIEGDFKEQQVTKVFQIKKGKDDQEDGILTSEPVPIEWPQSYDSINPDLIKDKRSPEGKKKYRQGMKTIFGWFRWTGLKPGKEFPHGDSLASLFSEEIYPFCVKYYAEAQRDLEDEEGESGLSADGDSEDDDGSLGEVDLPLSDEEPSSKKRKV
notes: Vps75, histone chaperone, Saccharomyces cerevisiae; also called Vps75 dimer; Vps75 tetramer; source: individually expressed and purified as previously described (Park et al, 2008)
binding result [1]: binds | stoichiometry N [2]: 4 chains of Vps75 (tetramer) | stoichiometry N [3]: 2 chains of Vps75 (dimer)

B2: Vps75 co-expressed with his–Rtt109 from pRSFDuet-1 (natural protein, Saccharomyces cerevisiae, UniProt P53853 1-264, looked up)
chain: B1 chain
notes: Vps75, Saccharomyces cerevisiae; multiple cloning site 2 of pRSFDuet-1; source: E. coli Rosetta (DE3) pLysS, co-expressed with his–Rtt109, in lysate; co-purified (HisTrap, MonoQ)
stoichiometry N [4]: 2 chains of Vps75 (dimer)
